System: MS2 coat protein
Assay: apparent KD of MS2 coat protein; designed switch direction (-1 OFF switch, 1 ON switch): -1; higher = weaker reporter binding
In short: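 Designed RNA switches were transcribed on Illumina chips by stalled E. coli RNA polymerase and titrated with SNAP-549-labelled MS2 coat protein from 0.7 or 1.5 nM, doubling to 3 µM. Step length ran from 0.8–1.5 h at the lowest concentration to 10–20 min at the highest. The apparent KD is the median over clusters for each design, from curve-fitted normalised cluster fluorescence.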

[1] = input ligand: microRNA oligo, concentration not stated
[2] = Eterna round: R95, input ligand: microRNA oligo, concentration not stated
[3] = Eterna round: R95, input ligand: FMN 200 uM
[4] = Eterna round: R95, input ligand: none

For “ACAAGCUUUUAGAUUCUUAACAUGAGGAUCACCCAUGUGCUCGUCUUAUUGGCCGGCGGGCCGCCGGAAAAGCUUGU (Eterna round: R97, puzzle: Sensor, turn-off variant 1)”, the “apparent KD of MS2 coat protein” value (input ligand: FMN 200 uM) was 283 nM and the “apparent KD of MS2 coat protein” value (input ligand: none) was 408 nM.

In the case of “AAAUAGAAAGGAUAUACAGGCAUCCUUACCAGAGCGAGCUCACAUGAGGAUCACCCAUGUAGAAGGUUCAUAGC [EX2 C.17] (Eterna round: R97, puzzle: Exclusion 2)”, the “apparent KD of MS2 coat protein” value (input ligand: FMN 200 uM) is reported as 34.9 nM and the “apparent KD of MS2 coat protein” value (input ligand: none) is reported as 31.8 nM.

“CAUUAUGUUGAGGAUAUGCGCCGGCUCGCUGGCGCAGAAGGCGACACAUGAGGAUCACCCAUGUCAGUUCGCGA [salish99_ex6_r004_418] (Eterna round: R97, puzzle: Exclusion 6)” was tested, and the “apparent KD of MS2 coat protein” value (input ligand: FMN 200 uM) was 13.3 nM and the “apparent KD of MS2 coat protein” value (input ligand: none) was 8.87 nM.

“GGGCUCGGAGGAUAUACAAUCUCGGGCUGAAAGGCUCGGGUACAUGAGGAUCACCCAUGUAGAAGGUCGGGCUC [-30.2, -27.6 kcal A 24%, 4bis,4] (Eterna round: R97, puzzle: Exclusion 2)” was tested, and the “apparent KD of MS2 coat protein” value (input ligand: FMN 200 uM) was 26 nM and the “apparent KD of MS2 coat protein” value (input ligand: none) was 15.9 nM.

For “AAAUUCUGAGGAUAUCGAUGUUUGUACAUGAGGAUCACCCAUGUCCUUUUUAUUUUUUCUCGAGAAGGCAGUGUAU [JR_E5_Sub100] (Eterna round: R96, puzzle: Exclusion 5)”, the “apparent KD of MS2 coat protein” value (input ligand: FMN 200 uM) was 48.1 nM, the “apparent KD of MS2 coat protein” value [1] was 32 nM and the “apparent KD of MS2 coat protein” value (input ligand: none) was 40.7 nM.

In the case of “CAGUACUGAGGAUAUACAUGAGGAUCACCCAUGUGCUUUAGCUAGGAUACUAGCACCAGUAGAAGGCAGUACUG [Fiskers Ex 3 828 mod 12] (puzzle: Exclusion 3)”, the “apparent KD of MS2 coat protein” value [2] is reported as 10.7 nM.

In the case of “AAUAACAGAGGAUAUACUGUUUUAUGUGUUUGUUAUUUUGAACAUGAGGAUCACCCAUGUAGAAGGCUGAUUGA [JMF 76] (puzzle: Exclusion 2)”, the “apparent KD of MS2 coat protein” value [2] is reported as 46 nM.

With “GCCUUGGGAGUCAGGAUAUACAAUAAAAUAAUUAAGUAGAAGGGACAUGAGGAUCACCCAUGUACAUUACAUUG [alecazam30] (Eterna round: R97, puzzle: Brourd's mod of Exclusion 4)” the “apparent KD of MS2 coat protein” value (input ligand: FMN 200 uM) was 48 nM and the “apparent KD of MS2 coat protein” value (input ligand: none) was 13.3 nM.

In the case of “AGAUCUAGGACAGGAUAUACAGAUGGCUUCAUCGAAGAUGAAGCCAUCACAUGAGGAUCACCCAUGUAGAAGGGUCCUAGAUCA [Omei Exc(NG) 2Av4] (Eterna round: R96, puzzle: Exclusion NG 2)”, the “apparent KD of MS2 coat protein” value (input ligand: FMN 200 uM) is reported as 19.2 nM, the “apparent KD of MS2 coat protein” value [1] is reported as 9.47 nM and the “apparent KD of MS2 coat protein” value (input ligand: none) is reported as 13.2 nM.

With “GCAUCCAUAGUGAGGAUAUACCUCUGGAUACAUAGGUAGAAGGCACAUGAGGAUCACCCAUGUUCCUAGGAUGC [Fiskers BMX 4 - 33] (puzzle: Brourd's mod of Exclusion 4)” the “apparent KD of MS2 coat protein” value [2] was 16.9 nM.

With “GGUACUCAAAGAGUACCAAUACGAACAUGAGGAUCACCCAUGUAGGAUAUGCUACUCAAAGAGUAGCAGAAGGAUAUGAACCCU [Far Half Aptamer v8] (Eterna round: R96, puzzle: Exclusion NG 3)” the “apparent KD of MS2 coat protein” value (input ligand: FMN 200 uM) was 33.1 nM, the “apparent KD of MS2 coat protein” value [1] was 16.8 nM and the “apparent KD of MS2 coat protein” value (input ligand: none) was 26.3 nM.

In the case of “AGUACUAACACGAAAGUGUUAGUACAAUAAGCUAGUGGAACAUGAGGAUCACCCAUGUCCUCAUUAGCUCGUCUUAA [Mat - Sensor v3 - Turn-off var 2 - D34] (puzzle: Sensor v3, turn-off variant 2)”, the “apparent KD of MS2 coat protein” value [3] is reported as 14.2 nM, the “apparent KD of MS2 coat protein” value [2] is reported as 29.2 nM and the “apparent KD of MS2 coat protein” value [4] is reported as 15.5 nM.

For “AGUACUGACACGUUGGUGUUAGUACCAUAAGCUUGUGAUACAUGAGGAUCACCCAUGUCCUCAUAAGCUCGUCUUAU [salish99_TOv2_r2_096] (puzzle: Sensor v3, turn-off variant 2)”, the “apparent KD of MS2 coat protein” value [3] was 27.4 nM, the “apparent KD of MS2 coat protein” value [2] was 484 nM and the “apparent KD of MS2 coat protein” value [4] was 26 nM.

For “AAAUUGGUAGAGGAUAUCGUACAGGAAACGAUGCGAGAAGGCUGCACAUGAGGAUCACCCAUGUUUAGUUGCGA [EX6 #42] (Eterna round: R97, puzzle: Exclusion 6)”, the “apparent KD of MS2 coat protein” value (input ligand: FMN 200 uM) was 19.2 nM and the “apparent KD of MS2 coat protein” value (input ligand: none) was 19.4 nM.
